41 sequences from the nanobody polyreactivity screen of Harvey et al. (2022) can be followed below.

The series is described as follows: yeast display, Sf9 membrane polyspecificity reagent, FACS + sequencing; frameworks hold sequencing errors. Put shortly: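 Synthetic nanobody libraries on Saccharomyces cerevisiae BJ5465 were galactose-induced for 36–48 hours, stained 1 hour at 4 °C with 10% biotinylated, detergent-solubilized Sf9 membrane reagent and enriched on streptavidin microbeads. FACS then separated cells into low and high (top ~1%) gates by anti-HA (expression) and streptavidin (reagent binding) fluorescence. Genes were colony-PCR amplified, MiSeq 2 × 250 sequenced and CDR-length filtered. A clone's polyreactivity label is that of its gate of origin.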
As to “QVQLVESGGGLVQAGGSLRLSCAASGSTFSANAMGWYRQAPGKERELVASISRRGGSTYYADSVKGRFTISRDYAKNTVYLQMNSLKPEDTAVYYCNKRIARQGSPSEYGRSQIGYYYWGQGTQVTVSS”, the “polyreactivity (PSR sort gate)” value is listed as “high polyreactivity”.
As for “QVQLVESGGGLVQAGGSLRLSCAASGSTFYTNAMGWYRQAPGKERELVAAISASVGSTYYADSVKGRFTISRDNAKNTVYLQMNSLKPEDTAVYYCAADRGFYYEYDYWGQGTQVTVSS”, the entry is “low polyreactivity”.
For “QDQLVESGGGLVQAGGSLRLPCAASGYIFFFNAIGWYRQAPGKERELVAAITRRGVSTYYADSVKGRFTISRDNAKNTVYLQMNSLNPEDTAVYYCATDHNHLGYYYWGQGTQVTVSS” the value was “low polyreactivity”; for “QVQLVESGGGLVQAGGSLRLSCAASGRIFDGNTMGWYRQAPGKERELVAAISGGGSTDYADSVKGRFTISRDNAKNTVYLQMNSLKPEDTAVYYCAATTGPVPLKGDYWGQGTQVTVSS”, “low polyreactivity”.
As for “QVQLVESGGGLVQAGGSLRLSCAASGSTFPGYAMGWYRQAPGKERELVAAINWRGDSTYYADSVKGRFTISRDNAKNTVYLQMNSLKPEDTAVYYCAAKYNHVTDEYDYWGQGTQVTVSS”, the entry is “high polyreactivity”; as for “QVQLVESGGGLVQAGGSLRLSCAASGRIFALYAMGWYRQAPGKERELVAAITWRGGRTRYADSVKGRFTISRDNAKNTVYLQMNSLKPEDTAVYYCNKRLFASRYDYWGQGTQVTVSS”, “high polyreactivity”; as for “QVQLVESGGGLVQAGGSLSLSCAASGLTIYLYAKGWYRQPPGNERELVAAISRSGGSTYYADSVKGRFTISRDNAKNTVYLQMNSLKPEDTAVYYCAAVSYYPEIRKYYYWGQGTQVTVSS”, “high polyreactivity”.
On to “EVQLVESGGGLVQAGGSLRLSCAAYGFTFVVYDMGWYRQAPGKERELVAAISRRGGNTYYADSVKGRFTISRDNAKNTVYLQMNSLKPEDTAVYYCNAVRTRKAYDYWGQGTQVTVSS”, for which the “polyreactivity (PSR sort gate)” value was “low polyreactivity”.
Regarding “QVHLVESGGGLVQAGGSLRLSCAASGRIFTFYAMGWYRQAPGKERELVAAISSSGVRTYYADSVKGRFTISRDNAKNTVYLQMNSLKPEDTAVYYCAAASRANSYRYNYWGQGTQVTVSS”, the “polyreactivity (PSR sort gate)” value is “high polyreactivity”.
In the case of “QVQLVESGGGLVEAGGSLRLSCAASGSTVWRYAMGWYRQAPGKERELVAAISWNGGSTYYADSVKGRFTISRDNAKNTVYLQMHSLKPEDTAVYYCARGYSWSVGYPRVQDMDYWGQGTQVTVSS”, the “polyreactivity (PSR sort gate)” value was “high polyreactivity”.
For “QVQLVESGGGLVQAGGSLRLSCAASAGIFRYYAMGWYRQAPGKERELVAAITSSGTSTYYADSVKGRFTISRDNAKNTVYLQMNSLKPEDTAVYYCAATRTKRKFDYWGQGTQVTVSS” the value was “high polyreactivity”; for “QVQLVESGGGLVQAGGSLRLSCAASGITIYKYAMGWSRQAPGKERELVAVISRSGGSTYYADSVKGRFTISRDNAKNTVYLQMNSLKPEDTAVYYCAADYRYPRQSKYYYWGQGTQVTVSS”, “high polyreactivity”; for “QVQLVESGGGLVQAGGSLRLSCAASGRTFVRYAMGWYRQAPGKERELVAAISWSGGSTYYADSVKGRFTISRDNAKNTVYLQKNSLKPEDTAVYYCAAVDETPSSHEEDYWGQGTQVTVSS”, “high polyreactivity”.
With “QVQLVESGGGLVQAGGSLRLSCAASGRTFPLNAMGWYRQAPGKERELVASITKSTGNTRYADSVKGRFTISRDNAKNTVYLQMNSLKPEDTAVYYCAARSYRDRYYWGQGTQVTVSS”, the “polyreactivity (PSR sort gate)” value is reported as “high polyreactivity”.
As for “QVQLVESGGGLVQAGGSLRLSCAASGGTLDVYAMGWYRQAPGKEREFVAAISWSGGRTYYADSVKGRFTISRDNAKNTVYLQMHSLKPEDTAVYYCATRDRAGYYYWGQGTQVTVSS”, the entry is “high polyreactivity”; as for “QVQLVESGGGLVQAGGSLRLSCAASGSTFGGYAMGRYRQAPGKERELVAAISNGDRTNYADSVKGRFTISRDNAKNTVYLQKNSLKPEETAVYYCATRTLFRYPNYGNNLWGYDYWGQGTQVTVSS”, “low polyreactivity”; as for “QVQLVESGGGLVQAGGSLRLSCAASGYIFLFYGMGWYRPAPGKERELVAAITYGGGSTYYADSVKGRFTISRDNAKNTVYLQMNSLKPEDTAVYYCNAPSRLSTIFYSGYDYWGQGTQVTVSS”, “low polyreactivity”.
For “QVQLVESGRGLVQAGGSLRLSCAPSGRISAQYTMGWYRQAPGKERELVAAITWSGTNTYYADSVKGRFTISRDNAKNTVYLQMNSLKPEDTAVYYCATAVYLVIFEYDYWGQGTQVTVSS”, the “polyreactivity (PSR sort gate)” value is recorded as “low polyreactivity”.
In the case of “QVQLVESGGGLVQAGGSLRLSCAASGSIFRYNTMGWYRQAPGKERELVAAIRGDGSTNYADSVKGRFTISRANAKNTVYLQMNSLKPEDTAVYYCAVTLRGYRYAYDYWGQGTQVTVSS”, the “polyreactivity (PSR sort gate)” value is listed as “low polyreactivity”.
As for “QVQLVESGGGLVQAGGSLRLSCAASGITFYVYAMGWYRQPPGTERDLVAAISRRGGSTSYADSVKGRFTISRDTAKNTVYLEMNSLKPEDTAVDYCAAGPFYGGIVRRYDYWGQGTQVTVSS”, the entry is “low polyreactivity”.
For “QVQLVESGRGLVQAGGSLRLSCAASGRIFVAYTMGLYRQAPGKERELVASINRSGGTYYADSVKGRFTISRDNAKNTVYLQMNRLKPEDTAVYYCNAVFRSRSYFSKGDYWGQGTQVTVSS”, the “polyreactivity (PSR sort gate)” value is recorded as “high polyreactivity”.
As for “QDQLVESGGGLVQAGGSLRLICAASGFTITTYAMGWYRQAPGKERELVASISYSGGRTYYADSVKGRFTISRDNAKNTVYLQLNSLKPEDTAVYFCAAVGVRNRAPSRGGYWGQGPQVTVSS”, the entry is “high polyreactivity”.
As for “QVQLVESGGGLVQAGGSLRLSCAASGSTFWSYAMGWYRQAPGKEREFVAAISSSDDSTYYADSVKGRFTISRDNAKNTVYLQMNSLKPEDTAVYYCATSWYIYPYDYWGQGTQVTVSS”, the “polyreactivity (PSR sort gate)” value is “low polyreactivity”.
For “QVQLVESRGGLVQAGGSLRLSCAASGSTFSVYAMGWYRQAPGKERELVADITRGGSTYADSVTGRFTISRDNAKNTVYLQMNSLKPEDTAVDYCARAEVTPYPLYWSTREYDYWGQGTQVTVSS” the value was “low polyreactivity”; for “QVQLVESGGGLVQAGGSLRVSCAASGRIFTIYAMGWYRQAPGTEREVVAAISDRGTRTYYADSVKGRFTISRDNAKNTVYVQMNSLKPEDTALYYCATDALYTYGYDYWGQGSQVTVSS”, “low polyreactivity”.
As for “QVQLVESGGGLFQAGGSLRISCAASGSTFYHNFMGWYRQAPGKERELVARITSTDSTYYEDSVKGRFTISGDNAKNTVYLQMNSLKPEYTAVSYCAASWWSPYDYWGQATQVTVSS”, the entry is “low polyreactivity”; as for “QVQLVESGGGLVQAGGSLRLSCAASGRTFASNDMGWYRQAPGKERELVADINNGARTYYADSVKGRFTISRDNAKNTVYLQMNSLKPEDTAVYYCNTRSGFYLGDFDYWGQGTQVTVSS”, “high polyreactivity”.
For “QVQLAETGGGLVQAGGSLRLSCAASGSTFSVYAMGWYRQSPGKERELVATIPRGGSTYADSVKGRLTISRDNAKNTVYLQMNSLKPEDTAVYYCAADAYVSSQPMDYWGQGTQVTVSS” the value was “high polyreactivity”; for “QVQLVESGGGLVQAGGSLRLSCAASGFIFWFNALGWYRQAPGKERELVATISWSDTSTYYADSVKGRFTISRDNAKNTVYLQMNSLKPEDTAVYYCATDGRETWLPEYYWGQGTQVTVSS”, “low polyreactivity”; for “QVQLVESGGGLVQAGGSLRLSCAASGSTLYQYAMGWYRQAPGKERELVAAITKSGGRTYYADSVKGRFTISRDNAKNTVYLQMNSLKPEDTAVYYCNVVRGSYSSGGDYWGQGTQVTVSA”, “high polyreactivity”.
“QVQLVESGGGLVQAGGSLRLSCAASGNIFYRYAMGWYRQAPGKERELVAAISGNSGNTYYADSVKGRFTISRDNAKNTVYLQMNSLKPEDTAVYYCAVRRKSFRQTSYNYWGQGTQVTVSS”: the “polyreactivity (PSR sort gate)” value is given as “high polyreactivity”.
For “QVQLVESGGGLVQAGGSLRISCAASGSTFQLYSMGWSRQAPGKEREFVAAITYSGGGSTSYADSVKGRFTISRDNAKNTVYLQMNSLKPEDTAVFYCAARDFETDGYTLVAYNYWGQGSQVTVSS” the value was “low polyreactivity”; for “QVQLVETGGGIVQAVGSLRLSCAASGSTFGWNAMGWNRQAPGKERELVAVISSDGRTYYADSVKGRFTISRDNAKNTVYLQMISLKPEDTAVYYCAKRAWGFGGYDYWGQGTQVTVSS”, “low polyreactivity”.
On to “QVQLVESGGGLVQAGGSLRLSCAASGGTFGSYAMGWYRQAPGKERELVAGITGSGGITKYADSVKGRFTISRDNAKNTVYLQMNSLKPEDTAVYYCNADYSVWYIRLSAYFTYDYWGQGTQVTVSS”, for which the “polyreactivity (PSR sort gate)” value is reported as “high polyreactivity”.
Take “QVQHVESGGCLDQAGGSLRLSCAASGIFRTNARGWYRTAPGKERELVAGISSGGGTNYADSVKGRFTISRDNAKNTVYLQMNSLKPEDTAVYSCAKERIYFYYWYVYSDLVYEYDYCGQGTQVTVSS”: the “polyreactivity (PSR sort gate)” value is reported as “low polyreactivity”.
As for “QVQIVESGGGLVQAGGSLRLSCAASGSIFVVNAMGWYRQAPRKERELVAAIDWSGDTTYYADSEKGRFTISRDYAKNTVYFQMNSLKPEDTAVYYCAAEYEFHEYDYWGQGTQVTVSS”, the entry is “high polyreactivity”.
For “QVQLVESGGGLVQAGGSLRLSCAASGRTFYPNAMGWYRQAPGKERELVARITTRGGSTYYADSVKGRFTISRDNAKNTVYLQMNSLKPEATAVYYCAVDYNSDWAYDYWGQGTQVTVSS”, the “polyreactivity (PSR sort gate)” value was “high polyreactivity”.
As for “QVQLVESGGGLVQAGGSLRLSCAASGRIFVYYAMGWYRQAPGKERELVAAISSSGGSTYYADSVKGRFTISRDNAKNTVYLQMNSLKPEDTAVYYCNAVTYFSLSYPRHDYWGQGTQVTVSS”, the entry is “high polyreactivity”; as for “QVQQQESGGGLVQAGGSQRLSCAASGTSLNSLCMGWYRQAPGKRREFVASITWGTTTNYAESVKGRFTISRDNANNTVYPQMNSLKPEDTAVYYCAAPPFGDSSYHYWGQGTQVTVSS”, “low polyreactivity”; as for “QVQLVESGGGLVQAGGSLRLSCAASGSTFHLYAMGWYRQAPGKETEIVAAIRGRGGNTYADSVKGRFTISRDNAKHTVYFQMNSLKPEDTAVSYCATSISEYQDFTRYDYWGQGTQVTVSS”, “low polyreactivity”.
As for “QVQLVESGGGLVQAGGSLRLSCAASGSILWEYAMGWYRQAHGKERELVATISSGGCSTNYADSVKGRFTISRDNAKHNFYLPMKSLKPEDTAVYYCNALTSYLVTYEFDSWGIGTQVTVSS”, the entry is “low polyreactivity”.
